Experiment in all cases: peptide SPOT array, c-Myc-tagged receptor at 1 uM or 100 nM, anti-c-Myc-Cy3
The target of assay [1] is T1, Mcl-1, Q07820.
T1 chain: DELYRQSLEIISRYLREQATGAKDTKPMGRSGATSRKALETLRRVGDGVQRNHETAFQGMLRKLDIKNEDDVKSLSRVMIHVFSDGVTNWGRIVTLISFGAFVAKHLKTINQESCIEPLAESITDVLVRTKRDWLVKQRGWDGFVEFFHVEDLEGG

The target of assay [2] is T2, Bfl-1, Q16548.
T2 chain: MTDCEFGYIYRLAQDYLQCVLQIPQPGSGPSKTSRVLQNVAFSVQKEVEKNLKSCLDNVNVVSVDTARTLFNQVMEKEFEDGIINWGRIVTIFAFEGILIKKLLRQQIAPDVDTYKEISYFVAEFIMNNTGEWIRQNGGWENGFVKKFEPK

Assay [3] has as its target Bcl-xL, Q07817.
Assay [4] concerns the target T3, Bcl-w, Q92843.
T3 chain: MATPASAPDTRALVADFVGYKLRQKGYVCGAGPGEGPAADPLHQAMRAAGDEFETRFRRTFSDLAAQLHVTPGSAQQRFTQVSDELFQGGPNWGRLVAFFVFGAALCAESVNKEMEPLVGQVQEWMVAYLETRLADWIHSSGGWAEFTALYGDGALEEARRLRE

The target in assay [5] is Bcl-2, P10415.
Sequence of Bcl-2, P10415 (P10415 1-217): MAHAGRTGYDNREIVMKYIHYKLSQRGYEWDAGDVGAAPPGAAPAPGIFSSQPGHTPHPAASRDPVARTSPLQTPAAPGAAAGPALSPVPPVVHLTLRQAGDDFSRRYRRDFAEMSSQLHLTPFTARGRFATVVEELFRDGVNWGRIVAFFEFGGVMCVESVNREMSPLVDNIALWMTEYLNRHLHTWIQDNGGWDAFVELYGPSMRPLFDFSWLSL

Sequence of Bcl-xL, Q07817 (Q07817 1-209): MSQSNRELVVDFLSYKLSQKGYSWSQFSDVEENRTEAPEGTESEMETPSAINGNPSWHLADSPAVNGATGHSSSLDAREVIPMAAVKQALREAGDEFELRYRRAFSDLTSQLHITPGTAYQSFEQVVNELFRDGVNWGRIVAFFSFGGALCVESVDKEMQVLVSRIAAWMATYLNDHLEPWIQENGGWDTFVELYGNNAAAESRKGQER

In the case of DSLAKFAGRKLKDCGEDLLVEISEVL [PCM1], the SPOT signal as a fraction of Bim BH3's signal on the same receptor and array is 0.02 in assay [1]; 0.01 in assay [2]; 0.02 in assay [3]; 0.02 in assay [4]; 0.01 in assay [5].

Regarding CQGDTVISECLQRFADSLQEVVNYHM [ACAP3], the SPOT signal as a fraction of Bim BH3's signal on the same receptor and array came out at 0.02 in assay [1]; 0.11 in assay [2]; 0.02 in assay [3]; 0.02 in assay [4]; 0.01 in assay [5].

With EKNLPKMAEALAHGADVNWANSEENK [ACAP2], the SPOT signal as a fraction of Bim BH3's signal on the same receptor and array in assay [1] amounted to 0.02; in assay [2], 0.01; in assay [3], 0.02; in assay [4], 0.01; in assay [5] it was 0.01.

With EQKLKQHVENLNQVAEKLEEKHSQIT [CCDC68], the SPOT signal as a fraction of Bim BH3's signal on the same receptor and array in assay [1] amounted to 0.02; in assay [2], 0.01; in assay [3], 0.03; in assay [4], 0.02; in assay [5], 0.01.

Regarding TCLNRGFSRLLDNMAEFFRPTEQDLQ [PEX3], the SPOT signal as a fraction of Bim BH3's signal on the same receptor and array in assay [1] is 0.04; in assay [2], 0.04; in assay [3] it was 0.06; in assay [4] it was 0.03; in assay [5] it was 0.02.

As for PRPLSILGNLLLLCSQDMLTSLTKLS [CYP2F1], the SPOT signal as a fraction of Bim BH3's signal on the same receptor and array in assay [1] amounted to 0.08; in assay [2], 0.33; in assay [3], 0.2; in assay [4], 0.11; in assay [5], 0.03.

On to LGHTGLACLFLKRGADLGARDSEGRD [ACAP1], for which the SPOT signal as a fraction of Bim BH3's signal on the same receptor and array is 0.045 in assay [1]; 0.21 in assay [2]; 0.14 in assay [3]; 0.1 in assay [4]; 0.03 in assay [5].

As to KCRHEEVVQVLRNAGEEVTLTVSFLK [SNTG1], the SPOT signal as a fraction of Bim BH3's signal on the same receptor and array in assay [1] was determined as 0.02; in assay [2], 0.02; in assay [3], 0.02; in assay [4], 0.01; in assay [5] it was 0.01.

GMTSEQVAQVLRNCGNSVRMLVARDP [INADL]: the SPOT signal as a fraction of Bim BH3's signal on the same receptor and array in assay [1] worked out at 0.07; in assay [2], 0.15; in assay [3] it was 0.18; in assay [4], 0.06; in assay [5], 0.04.

For the molecule RTNNYQLSDELRKNGVELTSLRQKVA [GRIPAP1], the SPOT signal as a fraction of Bim BH3's signal on the same receptor and array was determined as 0.19 in assay [1]; 0.48 in assay [2]; 0.39 in assay [3]; 0.51 in assay [4]; 0.14 in assay [5].

For the molecule YNLKSPAVKRLMKEAAELKDPTDHYH [UBE2J1], the SPOT signal as a fraction of Bim BH3's signal on the same receptor and array in assay [1] was found to be 0.05; in assay [2] it was 0.13; in assay [3] it was 0.19; in assay [4], 0.08; in assay [5], 0.03.

Regarding FDHMVPLVEEINRLADELNPLNASQE [C7orf26], the SPOT signal as a fraction of Bim BH3's signal on the same receptor and array in assay [1] was found to be 0.02; in assay [2], 0.01; in assay [3], 0.02; in assay [4], 0.02; in assay [5], 0.01.

In the case of DIDEGLYSRQLYVLGHEAMKRLQTSS [UBA1], the SPOT signal as a fraction of Bim BH3's signal on the same receptor and array stood at 0.04 in assay [1]; 0.09 in assay [2]; 0.05 in assay [3]; 0.03 in assay [4]; 0.02 in assay [5].

In the case of ASGNKEMIEALKQYAMDYSNKALEKG [IFIT3], the SPOT signal as a fraction of Bim BH3's signal on the same receptor and array came to 0.03 in assay [1]; 0.04 in assay [2]; 0.06 in assay [3]; 0.04 in assay [4]; 0.01 in assay [5].

With FQQTISCPEGLRLVGSEVGDRTLPGW [IRF3], the SPOT signal as a fraction of Bim BH3's signal on the same receptor and array in assay [1] is 0.02; in assay [2] it was 0.02; in assay [3], 0.03; in assay [4], 0.02; in assay [5], 0.01.

The values are drawn from publication PMC4072508, “Genome-Wide Prediction and Validation of Peptides That Bind Human Prosurvival Bcl-2 Proteins” (PLoS Computational Biology, 2014).
